The values below are quoted from earlier work in PMC4740375.

Usually Kd stands for the concentration at which binding is half-saturated.

For series [1], the target named is CD28 (Homo sapiens) (UniProt P10747).
For series [2] the target is unchanged. The source holds these as a separate data set.

Like-named read-outs stand apart in the source and are kept apart here.

As for CD80 (from UniProt P33681), the Kd in the series with CD28 (Homo sapiens) [1] is 4 µM. For the substance CD86 (from UniProt P42081), the Kd in the series with CD28 (Homo sapiens) [2] was 20 µM.
